From patent US20240301052A1 (LANOVA MEDICINES DEVELOPMENT, published 2024)
Numbering of substitutions follows the chain as printed.

B1: xi94B10A8 hIgG1 (antibody, V domains shown)
VH: QVQLQQTGAELVKPGASVKMSCKASGYTFTGYIIHWIKQRPGQGLEWIGAIYPGNGDTSYNQKIKGRATLTADKSSTTAYMQLSSLTSEDSAVYYCARGDYGNPAWFAYWGQGTLVTVSA
VL: DVVLTQSPATLSVTPGDRVSLSCRASQSISNYLYWYQQKAHESPRLLIKFASQSISGIPSRFRGSGSGTDFTLSINSVETEDFGMYFCQQSNKWPLTFGAGTKLELK
notes: chimeric, hIgG1
B2: xi16E5D10 hIgG1 (antibody, V domains shown)
VH: QVQLQQPGAELVKPGASVMMSCKASGYTFSNHNLHWLKKTPGQGLDWIGAIYPGNGDTSYNQKFKGRATLTVDKSSNTAYMQFSSLTSEDSAVFYCARGKYGNGAMDYWGQGTAVTVSS
VL: DIVMTQSHKFMSTSVGDRVSITCRASQDVGTAVVWYQQKLGQSPKLLFDWASSRHTGVPDRFTGSGSGTDFTLTITDVQSEDLADYFCQQYSRQPLTFGAGTKLELK
notes: chimeric, hIgG1
B3: xi69B11D8 hIgG1 (antibody, V domains shown)
VH: EVQLQQSGPELVKPGAAVKISCKTSGYTFTDYTMHWVRQSHGKSLEWIGGIHPNNGGTGYNQKLRGKATLTVDKSSSTAYMELRSLTSDDSAVYYCARGRESDGWFTYWGQGTLVTFSA
VL: DVHMTQTTSSLSASLGDRVTITCSASQGIGNSLNWYQQQPDGTVKLLIYYTSRLHSGVPSRFSGSGSGTDYSLTISNLEPEDLATYYCQQYSRFPPTFGGGTKLEIK
notes: chimeric, hIgG1
B4: xi18G1H4 hIgG1 (antibody, V domains shown)
VH: QVQLQQPGAELVKPGASVRMSCKASAYTFTTYNLHWVKQTPGQGLEWIGAISPGNGVTSYNQKFRGKATLTADKSSSTAYMQLSSLTSEDSAVYYCARGYGYSVGAMDYWGQGTSVTVSS
VL: DIQMTQTTSSLSASLGDRVNISCSASQGIGNFLNWYQQKPDGTVKLLIYYTSSLHSGVPPRFSGSGSGTDYSLTISNLEPEDIATYYCQQYHKLPLTFGAGTKLELK
notes: chimeric, hIgG1
B5: xi84F2D10 hIgG1 (antibody, V domains shown)
VH: QVQLQQPGAVLVKPGASVKMSCKASGYTFTSYNLHWVKQTPGQGLEWIGAIYPGNGDTSYIQKFKGKATLTADKSSSTAYMQLSSLTSEDSAVYYCARGKYGNYEGFAYWGQGTLVTVSA
VL: DILLTQSPAILSVSPGERVSISCRASQSIGTSIYWYQQRRNGSPRLLIKFASESISGIPSRFSGSGSGTDFTLSINSVESEDIADYYCQQNNRWPFTFGSGTKLEIK
notes: chimeric, hIgG1
B6: xi28G3C6B9 hIgG1 (antibody, V domains shown)
VH: QVQLQQPGAEVVKPGASVKMSCKASGYTFTSYIIHWVKQAPGQGLEWIGAIYPGNGDTSYSQRFKGKAKLTADKSSSTAYMQLNSLTSEDSVVYYCARGNNYGSPAWFGYWGQGTLVTVSA
VL: DIVLTQSPVTLSVTPGDRVSLSCRASQSIGNFLYWYQQKSHESPRLLIKYASQSMSGIPSRFSGSGSGTDFTLSISRVETEDFGMYFCQQSNSWPVTFGAGTKLELK
notes: chimeric, hIgG1
B7: xi78D1B10 hIgG1 (antibody, V domains shown)
VH: QVQLQQPGADLVKPGASVKLSCKASGFTFTSYIIHWVKQTPGQGLEWIGAIYPGNGDTSYIQKFKGRATLTADKSSTTAYMQLGGLTSEDSAVYYCARGTYGSSAWFVYWGQGTLVTVSA
VL: B1 VL with V2I, R18S, Y32N, A40S, F50Y, K93S
notes: chimeric, hIgG1

What was measured:
[1] = molecular target: T1, human SLC34A2 (human, UniProt O95436 1-690); experiment: FACS, RMG-1 cells
T1 construct: whole, on cells; also called human solute carrier 34 A2; NaPi2b
T1 sequence (looked up): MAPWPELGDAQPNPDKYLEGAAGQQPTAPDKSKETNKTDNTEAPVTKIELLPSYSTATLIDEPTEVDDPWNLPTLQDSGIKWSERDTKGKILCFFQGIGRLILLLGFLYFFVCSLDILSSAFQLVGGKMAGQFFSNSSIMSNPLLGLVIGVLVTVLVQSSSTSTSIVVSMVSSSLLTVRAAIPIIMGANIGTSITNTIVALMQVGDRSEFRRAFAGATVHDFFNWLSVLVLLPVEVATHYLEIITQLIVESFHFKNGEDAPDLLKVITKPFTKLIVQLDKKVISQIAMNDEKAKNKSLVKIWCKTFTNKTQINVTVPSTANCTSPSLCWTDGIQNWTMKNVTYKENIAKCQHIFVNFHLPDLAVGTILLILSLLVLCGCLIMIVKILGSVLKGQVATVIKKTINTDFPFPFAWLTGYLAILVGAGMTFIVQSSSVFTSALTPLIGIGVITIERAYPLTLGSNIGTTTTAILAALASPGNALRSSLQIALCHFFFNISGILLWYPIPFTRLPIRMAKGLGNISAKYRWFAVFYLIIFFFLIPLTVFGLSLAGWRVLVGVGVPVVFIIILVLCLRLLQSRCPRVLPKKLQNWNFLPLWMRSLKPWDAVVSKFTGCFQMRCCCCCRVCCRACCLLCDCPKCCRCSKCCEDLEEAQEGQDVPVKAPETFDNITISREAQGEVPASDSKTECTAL
Method: Based on the foregoing cell-based binding results, some of the chimeric antibodies were selected for further cell based binding on human SLC34A2 expressing cells using flow cytometry. RMG-1 cells were incubated with the selected chimeric antibodies (from 200 nM, 4 folds dilution, 8 points). After incubation at 4° C. for 60 minutes, the cells were washed with FACS buffer twice, then stained with fluorescent conjugated secondary antibody at 4° C. for 30 minutes. Afterwards the cells were washed twice and analyzed by flow cytometry.

[2] = molecular target: T1, human SLC34A2; experiment: FACS, OVCAR3 cells
Method: In this example, cell based binding of chimeric antibodies (hIgG1) prepared from the murine antibodies on human SLC34A2 expressing cells were assessed using flow cytometry.
(§1) Briefly, OVCAR3 cells or HEK293 cells expressing human SLC34A2 were incubated with chimeric antibodies (from 200 nM, 4 folds dilution, 8 points). After incubation at 4° C. for 60 minutes, the cells were washed with FACS buffer twice, then stained with fluorescent conjugated secondary antibody at 4° C. for 30 minutes. After that the cells were washed twice and analyzed by flow cytometry.

[3] = molecular target: T1, human SLC34A2; experiment: cell-based or functional assay
[4] = molecular target: T1, human SLC34A2; experiment: cell-based or functional assay; remark: listed apart in the source
[5] = molecular target: T1, human SLC34A2; experiment: FACS, HEK293/human SLC34A2 cells
Method: as §1

[6] = molecular target: T2, Rhesus SLC34A2 (Rhesus, UniProt F7HDA3 1-690); experiment: FACS, HEK293/Rhesus SLC34A2 cells
T2 construct: whole, on cells
T2 sequence: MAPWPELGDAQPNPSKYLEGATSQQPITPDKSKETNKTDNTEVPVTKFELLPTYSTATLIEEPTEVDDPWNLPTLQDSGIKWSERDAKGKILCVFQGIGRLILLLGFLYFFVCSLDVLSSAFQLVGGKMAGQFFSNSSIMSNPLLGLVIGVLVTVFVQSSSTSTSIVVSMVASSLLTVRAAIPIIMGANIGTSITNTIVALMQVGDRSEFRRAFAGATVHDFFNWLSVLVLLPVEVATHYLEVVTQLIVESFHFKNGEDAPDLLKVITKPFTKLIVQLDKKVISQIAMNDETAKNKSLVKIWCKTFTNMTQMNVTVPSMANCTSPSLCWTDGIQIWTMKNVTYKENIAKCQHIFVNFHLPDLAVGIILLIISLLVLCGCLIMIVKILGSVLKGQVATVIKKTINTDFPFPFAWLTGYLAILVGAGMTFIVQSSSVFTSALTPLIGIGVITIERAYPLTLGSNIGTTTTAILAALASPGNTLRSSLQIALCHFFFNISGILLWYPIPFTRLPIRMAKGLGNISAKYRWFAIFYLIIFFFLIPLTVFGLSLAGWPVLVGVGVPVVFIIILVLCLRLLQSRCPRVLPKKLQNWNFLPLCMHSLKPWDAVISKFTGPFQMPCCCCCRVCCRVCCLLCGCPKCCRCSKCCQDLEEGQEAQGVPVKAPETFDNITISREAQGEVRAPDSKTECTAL
Method: as §1, with “the Rhesus SLC34A2 expressing HEK293 engineering” for “OVCAR3”, “(HEK293/Rhesus_SLC34A2)” for “or HEK293 cells expressing human SLC34A2”, “Abs” for “antibodies”

[7] = molecular target: T3, Cynomolgus SLC34A2 (Cynomolgus, UniProt A0A2K5UHY1 1-690); experiment: FACS, cells expressing Cynomolgus SLC34A2
T3 construct: whole, on cells; also called Cyno SLC34A2
T3 sequence: T2 sequence with P325H, I530V

Binder | EC50 [1] [nM] | Top (MFI) [1] [MFI] | EC50 [2] [nM] | Top (MFI) [2] [MFI] | ADCC reporter EC50 [3] [nM] | ADCC reporter Top (MFI) [3] [MFI] | cytotoxicity EC50 [4] [nM] | cytotoxicity Inhibition % [4] [%] | EC50 [5] [nM] | Top (MFI) [5] [MFI] | EC50 [6] [nM] | Top (MFI) [6] [MFI] | EC50 [7] [nM] | Top (MFI) [7] [MFI]
B1 | 2.58 | 9370 | 1.57 | 39600 | 4 | 486000 | 0.7 | 97.5 | 1.17 | 91300 | 2.24 | 13700 | 5.47 | 3150
B2 | 3.76 | 9500 | 4.66 | 27600 | 2.1 | 238000 | 0.78 | 93.1 | 2.29 | 47500 | 2.72 | 14800 | 3.79 | 3730
B3 | 1.7 | 9200 | 2.12 | 27700 | 2.7 | 216000 | 0.67 | 86.9 | 1.19 | 48000 | 1.68 | 11600 | 88.3 | 2570
B4 | 7.91 | 9800 | 2.75 | 42500 | 2.2 | 228000 | 0.36 | 82.7 | 0.86 | 106000 | 2.9 | 14300 | 4.93 | 4090
B5 | 4.33 | 8600 | 3.84 | 40500 | 2.5 | 409000 | 0.61 | 102 | 1.37 | 109000 | 46 | 8840 | 68.5 | 1280
B6 | 4.73 | 9420 | 4.27 | 43000 | 6.4 | 569000 | 0.36 | 86.4 | 1.88 | 107000 | 3.19 | 13400 | 2.81 | 3770
B7 | 2.1 | 9860 | 2.52 | 27500 | 2.6 | 212000 | 0.5 | 94 | 1.26 | 47700 | 1.58 | 16000 | 1.5 | 4400
